Test results reported in PMC9798703.
Read-outs that look alike come from different tables or passages of the source.

Tests used:
Assay in all cases: fluorescence anisotropy
ERα DBD-Ext [1] = target: T1, ERα DBD-Ext (Homo sapiens, UniProt P03372)
ERα DBD-Ext [2] = target: T1, ERα DBD-Ext; remark: listed apart in the source
ERα DBD-Ext [3] = target: T1, ERα DBD-Ext; remark: listed apart in the source
ERα DBD-Ext [4] = target: T1, ERα DBD-Ext; remark: listed apart in the source

Binder	binding result (ERα DBD-Ext [1])	Kd (ERα DBD-Ext [4])	other results
GREB1 (structured_RNA) RNA: GGGAUGCCGAAGAGUUGAUGUCAAUCUUUUUUUCCUAAGAAAAAAAGUCCGCGAGUAUUCC	binds		
UCAGGUCACUCUGACCUGGCUUCAGGUCAGAGUGACCUGA (structured_RNA) [rERE loop rescue]			binding result (ERα DBD-Ext [2]): binds
AUACAACAUACAACAUACAACAUACAACAUACAAC (ssRNA) [ssRNA (env8)]			Kd (ERα DBD-Ext [3]): ~1100 nM
CAGGUCAGAGUGACCUGAUUCGUCAGGUCACUCUGACCUG (structured_RNA) [rERE]		130 ± 20 nM	
GGGAUCUGCCUGCAUCCUGACGCGGUGCCGUCCC (structured_RNA) [TFF1]	binds		
rERE duplex (dsRNA) RNA 1: CAGGUCAGAGUGACCUGAUU RNA 2: AAUCAGGUCACUCUGACCUG		1100 nM	
